# Laboratory results as given in patent US20150010525A1, “Catalytic Tagging System to Study Macro-Molecular Interactions Using Engineered Ubiquitin Ligase and Ubiquitin-Like Proteins to Facilitate Substrate Identification” (THE REGENTS OF THE UNIVERSITY OF CALIFORNIA, priority 2012, published 2015).
# B1: Pre-mRNA-processing factor 19: potential cIAP1 substrate (protein, UniProt Q9UMS4 2-504, looked up)
# Pre-mRNA-processing factor 19: SLICSISNEVPEHPCVSPVSNHVYERRLIEKYIAENGTDPINNQPLSEEQLIDIKVAHPIRPKPPSATSIPAILKALQDEWDAVMLHSFTLRQQLQTTRQELSHALYQHDAACRVIARLTKEVTAAREALATLKPQAGLIVPQAVPSSQPSVVGAGEPMDLGELVGMTPEIIQKLQDKATVLTTERKKRGKTVPEELVKPEELSKYRQVASHVGLHSASIPGILALDLCPSDTNKILTGGADKNVVVFDKSSEQILATLKGHTKKVTSVVFHPSQDLVFSASPDATIRIWSVPNASCVQVVRAHESAVTGLSLHATGDYLLSSSDDQYWAFSDIQTGRVLTKVTDETSGCSLTCAQFHPDGLIFGTGTMDSQIKIWDLKERTNVANFPGHSGPITSIAFSENGYYLATAADDSSVKLWDLRKLKNFKTLQLDNNFEVKSLIFDQSGTYLALGGTDVQIYICKQWTEILHFTEHSGLTTGVAFGHHAKFIASTGMDRSLKFYSL
# B2: Heterogeneous nuclear ribonucleoprotein A0: potential cIAP1 substrate (protein, UniProt Q13151 1-305, looked up)
# Heterogeneous nuclear …: MENSQLCKLFIGGLNVQTSESGLRGHFEAFGTLTDCVVVVNPQTKRSRCFGFVTYSNVEEADAAMAASPHAVDGNTVELKRAVSREDSARPGAHAKVKKLFVGGLKGDVAEGDLIEHFSQFGTVEKAEIIADKQSGKKRGFGFVYFQNHDAADKAAVVKFHPIQGHRVEVKKAVPKEDIYSGGGGGGSRSSRGGRGGRGRGGGRDQNGLSKGGGGGYNSYGGYGGGGGGGYNAYGGGGGGSSYGGSDYGNGFGGFGSYSQHQSSYGPMKSGGGGGGGGSSWGGRSNSGPYRGGYGGGGGYGGSSF
# B3: Rho GDP-dissociation inhibitor 2: potential cIAP1 substrate (protein, UniProt P52566 2-201, looked up)
# Rho GDP-dissociation …: TEKAPEPHVEEDDDDELDSKLNYKPPPQKSLKELQEMDKDDESLIKYKKTLLGDGPVVTDPKAPNVVVTRLTLVCESAPGPITMDLTGDLEALKKETIVLKEGSEYRVKIHFKVNRDIVSGLKYVQHTYRTGVKVDKATFMVGSYGPRPEEYEFLTPVEEAPKGMLARGTYHNKSFFTDDDKQDHLSWEWNLSIKKEWTE
# B4: Putative annexin A2-like protein: potential cIAP1 substrate (protein, UniProt A6NMY6 2-339, looked up)
# Putative annexin A2-like …: STVHEILCKLSLEGDHSTPPSAYGSVKAYTNFDAERDALNIETAIKTKGVDEVTIVNIVTNRDNAQRQDIVFSYQRRTKKELASALKSALSGHLETVILGLLKTPAQYDASELKASMKGLGTDEDSLIEIICSRTNQELQEINRVYKEMYKTDLEKDIISDTSGDFRKLMVALAKGRRAEDGSVIDYELIDQDAQDLYDAGVKRKGTDVPKWISIMTERSVPHLQKVFDRYKSYSPYDMLESIRKEVKGDLENAFLNLVQRIQNKPLYFADQLYDSMKGKGTRDKVLIRIMVSRSEVDMLKIRSEFKRKYGKSLYYYIQQDTKGDYQKALLYLCGGDD
# B5: Isocitrate dehydrogenase [NADP], mitochondrial: potential cIAP1 substrate (protein, UniProt P48735 40-452, looked up)
# Isocitrate dehydrogenase …: ADKRIKVAKPVVEMDGDEMTRIIWQFIKEKLILPHVDIQLKYFDLGLPNRDQTDDQVTIDSALATQKYSVAVKCATITPDEARVEEFKLKKMWKSPNGTIRNILGGTVFREPIICKNIPRLVPGWTKPITIGRHAHGDQYKATDFVADRAGTFKMVFTPKDGSGVKEWEVYNFPAGGVGMGMYNTDESISGFAHSCFQYAIQKKWPLYMSTKNTILKAYDGRFKDIFQEIFDKHYKTDFDKNKIWYEHRLIDDMVAQVLKSSGGFVWACKNYDGDVQSDILAQGFGSLGLMTSVLVCPDGKTIEAEAAHGTVTRHYREHQKGRPTSTNPIASIFAWTRGLEHRGKLDGNQDLIRFAQMLEKVCVETVESGAMTKDLAGCIHGLSNVKLNEHFLNTTDFLDTIKSNLDRALGRQ
# B6: Medium-chain specific acyl-CoA dehydrogenase, mitochondrial: potential cIAP1 substrate (protein, UniProt P11310 26-421, looked up)
# Medium-chain specific …: KANRQREPGLGFSFEFTEQQKEFQATARKFAREEIIPVAAEYDKTGEYPVPLIRRAWELGLMNTHIPENCGGLGLGTFDACLISEELAYGCTGVQTAIEGNSLGQMPIIIAGNDQQKKKYLGRMTEEPLMCAYCVTEPGAGSDVAGIKTKAEKKGDEYIINGQKMWITNGGKANWYFLLARSDPDPKAPANKAFTGFIVEADTPGIQIGRKELNMGQRCSDTRGIVFEDVKVPKENVLIGDGAGFKVAMGAFDKTRPVVAAGAVGLAQRALDEATKYALERKTFGKLLVEHQAISFMLAEMAMKVELARMSYQRAAWEVDSGRRNTYYASIAKAFAGDIANQLATDAVQILGGNGFNTEYPVEKLMRDAKIYQIYEGTSQIQRLIVAREHIDKYKN
# B7: Acetyl-CoA acetyltransferase, mitochondrial: potential cIAP1 substrate (protein, UniProt P24752 34-427, looked up)
# Acetyl-CoA acetyltransferase, …: VSKPTLKEVVIVSATRTPIGSFLGSLSLLPATKLGSIAIQGAIEKAGIPKEEVKEAYMGNVLQGGEGQAPTRQAVLGAGLPISTPCTTINKVCASGMKAIMMASQSLMCGHQDVMVAGGMESMSNVPYVMNRGSTPYGGVKLEDLIVKDGLTDVYNKIHMGSCAENTAKKLNIARNEQDAYAINSYTRSKAAWEAGKFGNEVIPVTVTVKGQPDVVVKEDEEYKRVDFSKVPKLKTVFQKENGTVTAANASTLNDGAAALVLMTADAAKRLNVTPLARIVAFADAAVEPIDFPIAPVYAASMVLKDVGLKKEDIAMWEVNEAFSLVVLANIKMLEIDPQKVNINGGAVSLGHPIGMSGARIVGHLTHALKQGEYGLASICNGGGGASAMLIQKL
# B8: Elongation factor 1-alpha 1: potential cIAP1 substrate (protein, UniProt P68104 2-462, looked up)
# Elongation factor 1-alpha 1: GKEKTHINIVVIGHVDSGKSTTTGHLIYKCGGIDKRTIEKFEKEAAEMGKGSFKYAWVLDKLKAERERGITIDISLWKFETSKYYVTIIDAPGHRDFIKNMITGTSQADCAVLIVAAGVGEFEAGISKNGQTREHALLAYTLGVKQLIVGVNKMDSTEPPYSQKRYEEIVKEVSTYIKKIGYNPDTVAFVPISGWNGDNMLEPSANMPWFKGWKVTRKDGNASGTTLLEALDCILPPTRPTDKPLRLPLQDVYKIGGIGTVPVGRVETGVLKPGMVVTFAPVNVTTEVKSVEMHHEALSEALPGDNVGFNVKNVSVKDVRRGNVAGDSKNDPPMEAAGFTAQVIILNHPGQISAGYAPVLDCHTAHIACKFAELKEKIDRRSGKKLEDGPKFLKSGDAAIVDMVPGKPMCVESFSDYPPLGRFAVRDMRQTVAVGVIKAVDKKAAGAGKVTKSAQKAQKAK
# Target: T1, cIAP1 (Homo sapiens, UniProt P61081+Q13490)
# T1 construct: cIAP1(ΔR) (residues 1-555); GST (N, cleaved yes); made in house; host or cells: E. coli BL21 (DE3)
# T1 sequence (Q13490+P61081 fused): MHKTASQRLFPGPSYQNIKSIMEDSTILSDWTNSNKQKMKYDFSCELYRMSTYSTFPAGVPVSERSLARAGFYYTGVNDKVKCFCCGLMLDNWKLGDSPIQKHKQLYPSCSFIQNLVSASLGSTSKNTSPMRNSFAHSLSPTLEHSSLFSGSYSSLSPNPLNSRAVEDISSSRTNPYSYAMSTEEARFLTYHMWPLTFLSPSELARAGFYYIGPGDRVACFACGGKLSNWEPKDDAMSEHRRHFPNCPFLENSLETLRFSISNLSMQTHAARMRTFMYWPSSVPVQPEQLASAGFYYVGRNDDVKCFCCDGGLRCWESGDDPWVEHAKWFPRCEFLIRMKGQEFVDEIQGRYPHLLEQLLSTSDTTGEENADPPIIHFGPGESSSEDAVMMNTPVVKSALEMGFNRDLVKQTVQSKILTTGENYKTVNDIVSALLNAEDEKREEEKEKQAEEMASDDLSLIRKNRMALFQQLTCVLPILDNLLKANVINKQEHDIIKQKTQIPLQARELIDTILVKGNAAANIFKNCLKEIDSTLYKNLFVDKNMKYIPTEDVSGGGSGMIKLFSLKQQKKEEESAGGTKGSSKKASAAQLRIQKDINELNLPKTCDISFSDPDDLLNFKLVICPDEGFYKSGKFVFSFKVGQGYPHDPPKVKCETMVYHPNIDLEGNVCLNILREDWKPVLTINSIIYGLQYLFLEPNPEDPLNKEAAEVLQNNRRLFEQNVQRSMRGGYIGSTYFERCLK
# Experiment: SILAC mass spectrometry screen for cIAP1 substrates with NEDDylator^cIAP1 in apoptotic Jurkat cell lysate
# Assay type: biochemical
# Conditions: Light lysate with NEDDylator^cIAP1, Heavy lysate with Ubc12
# Method: Jurkat cells were grown in media containing either light or heavy isotopes of lysine and arginine and induced to undergo apoptosis with STS. Light cell extracts were incubated with the respective catalytic tagging system for each of the two IAPs and the heavy extracts labeled only with the wild-type NEDD8 E2, Ubc12. […] 100 mg ^13C6^15N2 L-Lys.2HCl and 86 mg ^13C6 L-Arg.HCl (Cambridge Isotope) were added to the same amount of medium to generate the “Heavy” medium. Jurkat cells were cultured separately in “Light” or “Heavy” medium for 7 days to allow for thorough isotope incorporation. For IAP substrate identification, 400 million cells were treated with 2 μM STS for 4 hours, harvested, lysed in M-PER mammalian protein extraction buffer (Thermo/Pierce) in the presence of protease inhibitors (100× ProteoBlock cocktail, Fermentas) and mixed with cell lysate prepared from 400 million untreated cells. […] Purified NEDDylated proteins were trypsinized and analyzed with tandem mass spectrometry (LC-MS/MS).
# For SILAC experiments, Jurkat cells were cultured separately in “Light” (supplemented with regular Lys and Arg) or “Heavy” (supplemented with ^13C6^15N2 Lys and ^13C6 Arg) medium for 7 days to allow for thorough isotope incorporation. Apoptotic “Light” and “Heavy” cell extracts were prepared individually. The lysates were cleared by spinning and then diluted in 50 mM HEPES pH 7.4, 150 mM NaCl to 5 mg/ml and supplemented with 5 mM ATP, 10 mM MgCl2. Endogenous NEDD8 E1 is cell lysate was used to catalyze the reaction. HB-NEDD8 was added to both lysate at mass ratio 1:500; the catalytic tagging system was added to the “Light” lysate at mass ratio 1:1000. Equal molar of Ubc12 was added to the “Heavy” lysate. […] NEDDylated proteins were separated by one-dimensional SDS-PAGE, and trypsinized for LC-MS/MS analysis.
# For liquid chromatography—Tandem mass spectrometry (LC-MS/MS) analysis, the tryptic peptides were first desalted and concentrated with a C18 Ziptip (Millipore). LC-MS/MS was carried out by reverse phase LC interfaced with a LTQ-Orbitrap (ThermoFisher Scientific) hybrid mass spectrometer. A nanoflow HPLC (NanoAcquity UPLC system, Waters Corporation) was equipped with a trap column (180 μm×20 mm, 5 μm SymmetryC18, from Waters) and an analytical column (100 μm×100 mm, 1.7 μm BEH130C18, from Waters). Peptides were eluted over a linear gradient from 2% solvent A (0.1% formic acid in water) to 35% solvent B (0.1% formic acid in acetonitrile) at 350 nL/min over 35 min. MS and MS/MS spectra were acquired in a data-dependent mode with MS spectra acquired in the Orbitrap at 30,000 resolving power and 6 CID MS/MS spectra acquired per MS in the LTQ linear ion trap. Dynamic exclusion was set at 90 seconds to prevent repeated MS/MS on the same precursor ion.
# The identified peptides were searched against a random decoy protein database for evaluating the false positive rates. […] The decoy peptides were removed from the data. Protein IDs were assigned only when at least two unique peptides were identified from the same protein. For SILAC experiment, Light/Heavy ratios for the identified peptides were calculated, using ProteinProspector. The media Light/Heavy ratios of all the peptides identified for each protein were used to represent the Light/Heavy ratio of the protein.
row,Molecule,L/H (Light/Heavy ratio)
1,ELAV-like protein 1: potential cIAP1 substrate,8.78
2,Eukaryotic initiation factor 4A-I: potential cIAP1 substrate,5.31
3,Glyceraldehyde-3-phosphate dehydrogenase: potential cIAP1 substrate,5.21
4,Hemoglobin subunit alpha: potential cIAP1 substrate,5.22
5,Heterogeneous nuclear ribonucleoprotein U: potential cIAP1 substrate,4.15
6,"Isocitrate dehydrogenase [NAD] subunit beta, mitochondrial: potential cIAP1 substrate",14
7,Non-POU domain-containing octamer-binding protein: potential cIAP1 substrate,7.52
8,TAR DNA-binding protein 43: potential cIAP1 substrate,26.9
9,B1,22.2
10,B2,20.7
11,B3,8.76
12,B4,8.75
13,B5,6.51
14,B6,6.17
15,B7,5.67
16,B8,4.4
